This passage reports response results from publication PMC5052687.

B1: MCvar1 PfEMP1 CIDRα2.8 domain (residues 576-745, mutant [Plasmodium falciparum] / human CD36 ectodomain (residues 35-439) with C-terminal BAP tag, biotinylated [modified: biotin on the BAP tag (in vitro, BirA ligase); biotin … (parent)
chain 1: EDKIMSYNAFFWMWVHDMLIDSIKWRDEHGRCINKDKGKTCIKGCNKKCISFQKWVEQKKTEWGKIKDHFRKQKDIPKDWTHDDFLQTLLMKDLLLEIIQDTYGDANEIKRIEALLEQAGVGGIDFAALAGLYTKGFVAEKDTTIDKLLQHEQKEADKCLKTHTDDTCPP
chain 2: QKTIKKQVVLEEGTIAFKNWVKTGTEVYRQFWIFDVQNPQEVMMNSSNIQVKQRGPYTYRVRFLAKENVTQDAEDNTVSFLQPNGAIFEPSLSVGTEADNFTVLNLAVAAASHIYQNQFVQMILNSLINKSKSSMFQVRTLRELLWGYRDPFLSLVPYPVTTTVGLFYPYNNTADGVYKVFNGKDNISKVAIIDTYKGKRNLSYWESHCDMINGTDAASFPPFVEKSQVLQFFSSDICRSIYAVFESDVNLKGIPVYRFVLPSKAFASPVENPDNYCFCTEKIISKNCTSYGVLDISKCKEGRPVYISLPHFLYASPDVSEPIDGLNPNEEEHRTYLDIEPITGFTLQFAKRLQVNLLVKPSEKIQVLKNLKRNYIVPILWLNETGTIGDEKANMFRSQVTGKIN

The variants in the test derive from B1. Put plainly: SPR. The conditions noted are these: with human CD36 ectodomain (residues 35-439) with C-terminal BAP tag, plateau of the top sensorgram (highest analyte concentration of the series), concentrations not given, parent: 62, read off a plot.
Take chain 1 Q73A: the response turned out to be 27 RU.

In the case of chain 1 E97A, the response turned out to be 40 RU.
